Measured values: PMC13397619

B1: NLV2 TCR alpha chain (CDR3α only) (parent)
chain: AGPMKTSYDKVI
partner: NLVGMVATV

Variants of: B1
Test: T-Switch: Jurkat TCRβ−/− cells expressing a CDR3 saturation-mutagenesis library, stained with two peptide-HLA-A*02:01 tetramers (original and novel peptide) plus anti-CD3, FACS-sorted into four gates, gDNA sequenced
Details: with HLA-A*02:01 with peptide … (NLV 2-2, the original bait), tetramers 1 µg/mL, 30 min on ice, DP and SW gates expanded about 10 days between rounds ('two to three rounds of selection' in the Methods), gate SP: higher = more of the variant in the gate that binds the original peptide and not the novel one = retained original binding. Fold enrichment of the CDR3 variant in one FACS gate of a two-tetra, unresolved parent, parent is a CDR3 fragment, scale: fold enrichment, numbering: sequential-on-construct, sequence …

| Variant | enrichment |
| --- | --- |
| […] (CDR3 as printed); I12K derived by comparing it with the table's wild-type CDR3 AGPMKTSYDKVI | 8.2 |
| […] (CDR3 as printed); G2E derived by comparing it with the table's wild-type CDR3 AGPMKTSYDKVI | 0.387 |
| […] (CDR3 as printed); K5F derived by comparing it with the table's wild-type CDR3 AGPMKTSYDKVI | 0 |
| […] (CDR3 as printed); K10R derived by comparing it with the table's wild-type CDR3 AGPMKTSYDKVI | 0 |
| […] (CDR3 as printed); G2L derived by comparing it with the table's wild-type CDR3 AGPMKTSYDKVI | 0 |
| […] (CDR3 as printed); S7V derived by comparing it with the table's wild-type CDR3 AGPMKTSYDKVI | 0 |
| […] (CDR3 as printed); P3I derived by comparing it with the table's wild-type CDR3 AGPMKTSYDKVI | 1.59 |
| […] (CDR3 as printed); P3F derived by comparing it with the table's wild-type CDR3 AGPMKTSYDKVI | 0 |
| […] (CDR3 as printed); D9Y derived by comparing it with the table's wild-type CDR3 AGPMKTSYDKVI | 0 |
| […] (CDR3 as printed); S7G derived by comparing it with the table's wild-type CDR3 AGPMKTSYDKVI | 0 |
| […] (CDR3 as printed); P3C derived by comparing it with the table's wild-type CDR3 AGPMKTSYDKVI | 0 |
| […] (CDR3 as printed); M4V derived by comparing it with the table's wild-type CDR3 AGPMKTSYDKVI | 18.1 |
| […] (CDR3 as printed); M4S derived by comparing it with the table's wild-type CDR3 AGPMKTSYDKVI | 7.99 |
| […] (CDR3 as printed); I12D derived by comparing it with the table's wild-type CDR3 AGPMKTSYDKVI | 0 |
| […] (CDR3 as printed); P3V derived by comparing it with the table's wild-type CDR3 AGPMKTSYDKVI | 0.124 |
| […] (CDR3 as printed); K10I derived by comparing it with the table's wild-type CDR3 AGPMKTSYDKVI | 0 |
| […] (CDR3 as printed); I12Q derived by comparing it with the table's wild-type CDR3 AGPMKTSYDKVI | 0 |
| […] (CDR3 as printed); M4Q derived by comparing it with the table's wild-type CDR3 AGPMKTSYDKVI | 5.77 |
| […] (CDR3 as printed); D9I derived by comparing it with the table's wild-type CDR3 AGPMKTSYDKVI | 0 |
| […] (CDR3 as printed); K5H derived by comparing it with the table's wild-type CDR3 AGPMKTSYDKVI | 4.24 |
| […] (CDR3 as printed); M4R derived by comparing it with the table's wild-type CDR3 AGPMKTSYDKVI | 0 |

| Variant | enrichment |
| --- | --- |
| […] (CDR3 as printed); M4A derived by comparing it with the table's wild-type CDR3 AGPMKTSYDKVI | 8.93 |
| […] (CDR3 as printed); I12G derived by comparing it with the table's wild-type CDR3 AGPMKTSYDKVI | 0 |
| […] (CDR3 as printed); K5I derived by comparing it with the table's wild-type CDR3 AGPMKTSYDKVI | 3.95 |
| […] (CDR3 as printed); G2R derived by comparing it with the table's wild-type CDR3 AGPMKTSYDKVI | 0 |
| […] (CDR3 as printed); K5V derived by comparing it with the table's wild-type CDR3 AGPMKTSYDKVI | 1.08 |
| […] (CDR3 as printed); D9N derived by comparing it with the table's wild-type CDR3 AGPMKTSYDKVI | 0 |
| […] (CDR3 as printed); P3S derived by comparing it with the table's wild-type CDR3 AGPMKTSYDKVI | 0 |
| […] (CDR3 as printed); S7Y derived by comparing it with the table's wild-type CDR3 AGPMKTSYDKVI | 0 |
| […] (CDR3 as printed); G2H derived by comparing it with the table's wild-type CDR3 AGPMKTSYDKVI | 0 |
| […] (CDR3 as printed); I12H derived by comparing it with the table's wild-type CDR3 AGPMKTSYDKVI | 0 |
| […] (CDR3 as printed); M4K derived by comparing it with the table's wild-type CDR3 AGPMKTSYDKVI | 0.788 |
| […] (CDR3 as printed); G2K derived by comparing it with the table's wild-type CDR3 AGPMKTSYDKVI | 0 |
| […] (CDR3 as printed); D9S derived by comparing it with the table's wild-type CDR3 AGPMKTSYDKVI | 0 |
| […] (CDR3 as printed); D9W derived by comparing it with the table's wild-type CDR3 AGPMKTSYDKVI | 0 |
| […] (CDR3 as printed); D9V derived by comparing it with the table's wild-type CDR3 AGPMKTSYDKVI | 0 |
| […] (CDR3 as printed); D9C derived by comparing it with the table's wild-type CDR3 AGPMKTSYDKVI | 0 |
| […] (CDR3 as printed); S7L derived by comparing it with the table's wild-type CDR3 AGPMKTSYDKVI | 0 |
| […] (CDR3 as printed); D9P derived by comparing it with the table's wild-type CDR3 AGPMKTSYDKVI | 0 |
| […] (CDR3 as printed); K5S derived by comparing it with the table's wild-type CDR3 AGPMKTSYDKVI | 4.22 |
| […] (CDR3 as printed); K10W derived by comparing it with the table's wild-type CDR3 AGPMKTSYDKVI | 0 |
| […] (CDR3 as printed); I12S derived by comparing it with the table's wild-type CDR3 AGPMKTSYDKVI | 0 |
